Key:
Type in all cases: binding, human
[1] = tested on: HA–JNK2; test: GST pull-down with WDR62 1018-C–GST constructs; conditions: HEK-293T, anti-HA/anti-pJNK
[2] = tested on: HA–JNK1; test: GST pull-down with WDR62 1018-C–GST constructs; conditions: HEK-293T, anti-HA/anti-pJNK
[3] = tested on: GST–MKK7β1; test: GST pull-down of WDR62 fragments with GST–MKK7β1; conditions: HEK-293T

B1: 1018-C–GST: wild-type WDR62-1018-C fused to GST (protein)
chain: RFATSLPHFPGCAGPTEDELSLPEGPSVPSSSLPQTPEQEKFLRHHFETLTESPCRELFPAALGDVEASEAEDHFFNPRLSISTQFLSSLQKASRFTHTFPPRATQCLVKSPEVKLMDRGGSQPRAGTGYASPDRTHVLAAGKAEETLEAWRPPPPCLTSLASCVPASSVLPTDRNLPTPTSAPTPGLAQGVHAPSTCSYMEATASSRARISRSISLGDSEGPIVATLAQPLRRPSSVGELASLGQELQAITTATTPSLDSEGQEPALRSWGNHEARANLRLTLSSACDGLLQPPVDTQPGVTVPAVSFPAPSPVEESALRLHGSAFRPSLPAPESPGLPAHPSNPQLPEARPGIPGGTASLLEPTSGALGLLQGSPARWSEPWVPVEALPPSPLELSRVGNILHRLQTTFQEALDLYRVLVSSGQVDTGQQQARTELVSTFLWIHSQLEAECLVGTSVAPAQALPSPGPPSPPTLYPLASPDLQALLEHYSELLVQAVRRKARGH
association with HA–JNK2 [1]: efficiently precipitated
association with HA–JNK1 [2]: efficiently precipitated

B2: Myc-1018-CΔD (protein)
chain: RFATSLPHFPGCAGPTEDELSLPEGPSVPSSSLPQTPEQEKFLRHHFETLTESPCRELFPAALGDVEASEAEDHFFNPRLSISTQFLSSLQKASRFTHTFPPRATQCLVKSPEVKLMDRGGSQPRAGTGYASPDRTHVLAAGKAEETLEAWRPPPPCLTSLASCVPASSVLPTDRNLPTPTSAPTPGLAQGVHAPSTCSYMEATASSRARISRSISLGDSEGPIVATLAQPLRRPSSVGELASLGQELQAITTATTPSLDSEGQEPALRSWGNHEASSACDGLLQPPVDTQPGVTVPAVSFPAPSPVEESALRLHGSAFRPSLPAPESPGLPAHPSNPQLPEARPGIPGGTASLLEPTSGALGLLQGSPARWSEPWVPVEALPPSPLELSRVGNILHRLQTTFQEALDLYRVLVSSGQVDTGQQQARTELVSTFLWIHSQLEAECLVGTSVAPAQALPSPGPPSPPTLYPLASPDLQALLEHYSELLVQAVRRKARGH
association with MKK7β1, in words [3]: efficiently precipitated with GST–MKK7β1

B3: Myc-1212-C: Myc-tagged WDR62 aa 1212–1523 (protein)
chain: PSTCSYMEATASSRARISRSISLGDSEGPIVATLAQPLRRPSSVGELASLGQELQAITTATTPSLDSEGQEPALRSWGNHEARANLRLTLSSACDGLLQPPVDTQPGVTVPAVSFPAPSPVEESALRLHGSAFRPSLPAPESPGLPAHPSNPQLPEARPGIPGGTASLLEPTSGALGLLQGSPARWSEPWVPVEALPPSPLELSRVGNILHRLQTTFQEALDLYRVLVSSGQVDTGQQQARTELVSTFLWIHSQLEAECLVGTSVAPAQALPSPGPPSPPTLYPLASPDLQALLEHYSELLVQAVRRKARGH
association with MKK7β1, in words [3]: efficiently associated

B4: Myc-1018-1284: Myc-tagged WDR62 aa 1018–1284 (protein)
chain: RFATSLPHFPGCAGPTEDELSLPEGPSVPSSSLPQTPEQEKFLRHHFETLTESPCRELFPAALGDVEASEAEDHFFNPRLSISTQFLSSLQKASRFTHTFPPRATQCLVKSPEVKLMDRGGSQPRAGTGYASPDRTHVLAAGKAEETLEAWRPPPPCLTSLASCVPASSVLPTDRNLPTPTSAPTPGLAQGVHAPSTCSYMEATASSRARISRSISLGDSEGPIVATLAQPLRRPSSVGELASLGQELQAITTATTPSLDSEGQEPA
association with MKK7β1, in words [3]: efficiently associated

B5: Myc-1232-C: Myc-tagged WDR62 aa 1232–1523 (protein)
chain: ISLGDSEGPIVATLAQPLRRPSSVGELASLGQELQAITTATTPSLDSEGQEPALRSWGNHEARANLRLTLSSACDGLLQPPVDTQPGVTVPAVSFPAPSPVEESALRLHGSAFRPSLPAPESPGLPAHPSNPQLPEARPGIPGGTASLLEPTSGALGLLQGSPARWSEPWVPVEALPPSPLELSRVGNILHRLQTTFQEALDLYRVLVSSGQVDTGQQQARTELVSTFLWIHSQLEAECLVGTSVAPAQALPSPGPPSPPTLYPLASPDLQALLEHYSELLVQAVRRKARGH
association with MKK7β1, in words [3]: but not Myc-1232-C
